Results published in publication PMC5228132.

What was measured:
[1] = molecular target: VdPG1 (Verticillium dahliae polygalacturonase 1) (Verticillium dahliae)
[2] = molecular target: FovPG1 (Fusarium oxysporum f. sp. vasinfectum polygalacturonase 1) (Fusarium oxysporum f. sp. vasinfectum)
[3] = molecular target: VdPG1 (Verticillium dahliae polygalacturonase 1) (Verticillium dahliae); remark: listed apart in the source

Substance: GhPGIP1 (cotton polygalacturonase-inhibiting protein 1) (natural protein)
- IC50 of inhibition; the text gives it for VdPG1, while the caption and footnote of Table 1 give it as antifungal activity on the growth of V. dahliae (eight doses of purified GhPGIP1) [1]: 44.4 µg/mL
- percent inhibition of PG activity by 3.24 nM GhPGIP1 over pH 7.0-10.0; 23.79% at pH 8.0 and 29.61% at pH 9.0 [2]: 29.6%
- percent inhibition of PG activity by 3.24 nM GhPGIP1 over pH 3.5-5.0; 26.88% at pH 4.2 and 31.45% at pH 4.8 [3]: 31.4%
